Each block holds one molecule with its values, some of them ahead of it.
Assays:
[1] = molecular target: FLAG- and V5-tagged ATXN7L3 (UniProt Q14CW9); assay: affinity purification with mass spectrometry
[2] = molecular target: T1, FLAG- and V5-tagged ATXN7L3 (UniProt Q14CW9 1-347); assay: affinity purification with mass spectrometry
T1 sequence (looked up): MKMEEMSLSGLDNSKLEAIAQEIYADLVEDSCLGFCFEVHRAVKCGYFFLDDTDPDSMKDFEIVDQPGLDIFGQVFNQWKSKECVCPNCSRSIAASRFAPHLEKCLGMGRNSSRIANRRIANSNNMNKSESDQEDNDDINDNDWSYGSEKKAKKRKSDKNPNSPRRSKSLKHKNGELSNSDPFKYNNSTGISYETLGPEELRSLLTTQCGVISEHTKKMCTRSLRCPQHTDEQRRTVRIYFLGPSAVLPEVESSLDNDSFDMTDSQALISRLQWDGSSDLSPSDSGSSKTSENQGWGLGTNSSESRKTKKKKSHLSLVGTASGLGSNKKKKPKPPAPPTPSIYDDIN

- fold increase of association with ATXN7L3 upon depletion of USP22 [1]: 5.5 fold
Molecule: USP27X (endogenous) (enzyme)

- fold increase of association with ATXN7L3 upon depletion of USP22 [2]: ~4 fold
B1: USP51 (endogenous) (enzyme, human (endogenous in 293T), UniProt Q70EK9 1-711, looked up)
chain: MAQVRETSLPSGSGVRWISGGGGGASPEEAVEKAGKMEEAAAGATKASSRREAEEMKLEPLQEREPAPEENLTWSSSGGDEKVLPSIPLRCHSSSSPVCPRRKPRPRPQPRARSRSQPGLSAPPPPPARPPPPPPPPPPPAPRPRAWRGSRRRSRPGSRPQTRRSCSGDLDGSGDPGGLGDWLLEVEFGQGPTGCSHVESFKVGKNWQKNLRLIYQRFVWSGTPETRKRKAKSCICHVCSTHMNRLHSCLSCVFFGCFTEKHIHKHAETKQHHLAVDLYHGVIYCFMCKDYVYDKDIEQIAKETKEKILRLLTSTSTDVSHQQFMTSGFEDKQSTCETKEQEPKLVKPKKKRRKKSVYTVGLRGLINLGNTCFMNCIVQALTHIPLLKDFFLSDKHKCIMTSPSLCLVCEMSSLFHAMYSGSRTPHIPYKLLHLIWIHAEHLAGYRQQDAHEFLIAILDVLHRHSKDDSGGQEANNPNCCNCIIDQIFTGGLQSDVTCQACHSVSTTIDPCWDISLDLPGSCATFDSQNPERADSTVSRDDHIPGIPSLTDCLQWFTRPEHLGSSAKIKCNSCQSYQESTKQLTMKKLPIVACFHLKRFEHVGKQRRKINTFISFPLELDMTPFLASTKESRMKEGQPPTDCVPNENKYSLFAVINHHGTLESGHYTSFIRQQKDQWFSCDDAIITKATIEDLLYSEGYLLFYHKQGLEKD

Reference: article PMC4874879 (Molecular cell, 2016)
